Patent publication US20110002927A1 (DELENEX THERAPEUTICS, published 2011)

Experiments:
[1] = target: T1, recombinant human TNF-alpha (rhTNF-α) (human, UniProt P01375 77-233); experiment: cell-based or functional assay
[2] = target: T1, recombinant human TNF-alpha (rhTNF-α); experiment: method not stated (data not shown)

T1 sequence (P01375 77-233 limits assumed): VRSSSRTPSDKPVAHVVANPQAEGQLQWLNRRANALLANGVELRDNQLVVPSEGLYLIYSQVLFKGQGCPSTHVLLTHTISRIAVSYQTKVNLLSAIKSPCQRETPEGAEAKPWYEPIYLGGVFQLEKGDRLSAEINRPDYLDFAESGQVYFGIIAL

Kd [2]: 2.19 nM
koff [2]: 0.0126 s⁻¹
kon [2]: 5.72e+06 M⁻¹ s⁻¹
B1: ESBA105 (scFv)
scFv: DIVMTQSPSSLSASVGDRVTLTCTASQSVSNDVVWYQQRPGKAPKLLIYSAFNRYTGVPSRFSGRGYGTDFTLTISSLQPEDVAVYYCQQDYNSPRTFGQGTKLEVKRGGGGSGGGGSGGGGSSGGGSQVQLVQSGAEVKKPGASVKVSCTASGYTFTHYGMNWVRQAPGKGLEWMGWINTYTGEPTYADKFKDRFTFSLETSASTVYMELTSLTSDDTAVYYCARERGDAMDYWGQGTLVTVSS
notes: expressed in and purified from E. coli; 26 kDa; also called E105; anti-TNFalpha single-chain antibody (scFv) ESBA105
EC50 in the L929 TNF-α assay (rescue of actinomycin D sensitized mouse L929 fibroblasts from rhTNF-α induced apoptosis, XTT) [1]: 0.0125 µg/mL
